Measurements reported in US20180016352A1 (published 2018).

Columns and labels:
Test in all cases: indirect ELISA, recombinant receptor coated, anti-c-myc HRP
[1] = target: recombinant EphA2 receptor (UniProt P29317 25-534, limits assumed)
Description: (§1) The target binding of the BsAbs was evaluated by indirect ELISA methods using PEG polymer and recombinant target proteins immobilized on ELISA plates. Individual wells of a 96 well Maxisorp plate were coated with 100 μL of 10 μg/mL of polymer (polyethylene glycol monomethyl ether methacrylate) or 10 μg/mL of target recombinant receptor (EphA2, VEGFR2, Mesothelin and EGFR) for 16-20 hr at 4C. PEG and target receptors were diluted in phosphate buffered saline (PBS pH 7.4). […] The blocker was decanted and 100 μL of BsAb, either in cell culture supernatant or purified protein stored in PBS, was added to each well. The BsAb was incubated for 2 hr and then decanted. The wells were washed five times manually in PBST and 100 μL of HRP labeled anti-c-myc antibody diluted 1/5000 in blocker was added to each well and incubated for 30 mins. The c-myc antibody was then decanted and the wells washed again five times manually with PBST. One hundred microliters of TMB was added to all wells and incubated for 10-15 mins or until adequate color development was identified. The TMB colorimetric reaction was neutralized by adding 100 μL of 2M sulfuric acid. The colorimetric reactions in each well was analyzed at an absorbance of 450 nm using the Spectramax plate reader.

[2] = target: T1, recombinant EGFR (UniProt P00533 25-645, limits assumed)
T1 construct: It may be the same reagent as rEGFR-hFc; also called rEGFR
Description: as §1

[3] = target: recombinant Mesothelin (UniProt Q13421 296-580, limits assumed)
Description: as §1

Measured: binding result

Chain of recombinant EphA2 receptor (P29317 25-534 limits assumed): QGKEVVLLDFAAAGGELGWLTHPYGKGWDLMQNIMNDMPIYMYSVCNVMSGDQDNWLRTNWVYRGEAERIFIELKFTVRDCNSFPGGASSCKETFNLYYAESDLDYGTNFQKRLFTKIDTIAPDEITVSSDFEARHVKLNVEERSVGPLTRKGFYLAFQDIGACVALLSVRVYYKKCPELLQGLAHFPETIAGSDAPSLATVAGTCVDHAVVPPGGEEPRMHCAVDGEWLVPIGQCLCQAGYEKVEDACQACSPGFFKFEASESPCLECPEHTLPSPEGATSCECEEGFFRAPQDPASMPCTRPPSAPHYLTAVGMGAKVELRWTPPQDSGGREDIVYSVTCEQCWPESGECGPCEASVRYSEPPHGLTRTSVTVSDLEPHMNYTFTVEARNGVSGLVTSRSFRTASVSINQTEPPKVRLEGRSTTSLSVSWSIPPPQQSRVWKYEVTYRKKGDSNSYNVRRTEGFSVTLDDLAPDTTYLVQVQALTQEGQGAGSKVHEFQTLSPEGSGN
Chain of recombinant Mesothelin (Q13421 other isoform, or with tags, fused parts or gaps limits assumed): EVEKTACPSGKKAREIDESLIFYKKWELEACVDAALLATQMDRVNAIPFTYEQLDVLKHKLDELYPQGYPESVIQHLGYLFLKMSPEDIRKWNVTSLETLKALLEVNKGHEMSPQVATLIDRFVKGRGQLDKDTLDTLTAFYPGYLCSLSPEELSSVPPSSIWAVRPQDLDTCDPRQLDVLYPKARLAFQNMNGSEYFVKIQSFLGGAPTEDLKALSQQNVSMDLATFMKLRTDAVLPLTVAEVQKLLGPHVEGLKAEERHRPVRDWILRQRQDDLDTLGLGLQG

B1: VEGF-15.2 (BsAb targeting VEGFR2) (other)
chain: HHHHHHEVVKFMDVYQRSYCHPIETLVDIFQEYPDEIEYIFKPSCVPLMRCGGCCNDEGLECVPTEESNITMQIMRIKPHQGQHIGEMSFLQHNKCECRPKKDGSTSGSGKSSEGKGEVVKFMDVYQRSYCHPIETLVDIFQEYPDEIEYIFKPSCVPLMRCGGCCNDEGLECVPTEESNITMQIMRIKPHQGQHIGEMSFLQHNKCECRPKKDSGGGGSEVKLEESGGGLVQPGGSMKLSCVASGFTFSNYWMNWVRQSPEKGLEWVTEIRSKSNNYATHYAESVKGRFTISRDDSKGSVYLQMNNLRAEDTGIYYCSNRYYWGQGTLVTVSAGGGGSGGGGSGGGGSDIVMTQSHKFMSTSVRDRVTITCKASQDVNTSVAWYQQKPGQSPKLVIYWASTRHTGVPDRFTGSGSGTDFTLTISNVQSEDLADYFCLQYINYPYTFGGGTKLEIKEQKLISEEDLN
no binding: [1] | [2] | [3]
